PMC4844672 (Nature Communications, 2016)
Values belong to the molecule of their own block, whether it stands above or below them.

Legend:
[1] = target: GbLFY-SAM (N-terminal SAM domain of Ginkgo biloba LEAFY, wild type) (Ginkgo biloba); experiment: SEC-MALS; SEC-MALLS on Superdex-200 10/300GL in buffer A, 20 °C, 0.5 ml/min; 50 µl at ~4.5 mg/ml injected; [RE+TE] is an equimolar mixture of the TE and RE mutants
AtLFY = target: T1, AtLFY (Arabidopsis thaliana, UniProt Q00958 1-420); experiment: EMSA; 500 nM; behaves like GbLFYΔ; EMSA: 20 mM Tris-HCl pH 7.5, 150 mM NaCl, 1% glycerol, 0.25 mM EDTA, 2 mM MgCl2, 0.01% Tween-20, 3 mM TCEP, 28 ng/ml fish sperm DNA, 10 nM probe, 25-500 nM prot
T1 sequence: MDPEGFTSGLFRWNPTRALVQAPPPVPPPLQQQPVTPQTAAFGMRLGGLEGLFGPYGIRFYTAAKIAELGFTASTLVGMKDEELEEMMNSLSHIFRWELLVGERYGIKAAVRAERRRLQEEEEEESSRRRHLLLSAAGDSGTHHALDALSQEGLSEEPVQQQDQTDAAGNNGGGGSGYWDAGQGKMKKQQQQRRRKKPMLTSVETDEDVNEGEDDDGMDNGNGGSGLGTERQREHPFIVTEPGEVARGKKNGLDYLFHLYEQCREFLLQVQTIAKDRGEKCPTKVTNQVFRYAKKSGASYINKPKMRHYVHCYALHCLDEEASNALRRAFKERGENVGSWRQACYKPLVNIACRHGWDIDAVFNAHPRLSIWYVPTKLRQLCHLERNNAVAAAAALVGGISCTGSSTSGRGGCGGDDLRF

[2] = target: the molecule itself; experiment: SEC; Superdex-200 10/300GL in buffer A, 4 °C, calibrated with protein standards; molecular mass estimated at different protein concentrations

stoichiometry N [1]: < 8 monomers
Molecule: GbLFY-SAM (N-terminal SAM domain of Ginkgo biloba LEAFY, wild type) (domain or fragment)

B1: AGI-II (dsDNA)
DNA 1: CGTTTAAATTTAATCCAATGGTTACAATTTTAATACTATCAAATGTCTATTGGATTTATACCCAATGTGTTAATGGGTTG
DNA 2: CAACCCATTAACACATTGGGTATAAATCCAATAGACATTTGATAGTATTAAAATTGTAACCATTGGATTAAATTTAAACG
binding result (AtLFY): binds

B2: AtLFY-SAM (SAM domain of A. thaliana LEAFY) (domain or fragment, Arabidopsis thaliana, UniProt Q00958 38-151, looked up)
chain: QTAAFGMRLGGLEGLFGPYGIRFYTAAKIAELGFTASTLVGMKDEELEEMMNSLSHIFRWELLVGERYGIKAAVRAERRRLQEEEEEESSRRRHLLLSAAGDSGTHHALDALSQ
notes: LEAFY (LFY) of Arabidopsis thaliana, residues 38-151 of the A. thaliana LFY cDNA (plasmid pETH201, vector pETM-11); also called SAM domain of A. thaliana LFY; source: E. coli Rosetta2 (DE3), purified (Ni-Sepharose, TEV cleavage, Superdex-200); not shown: 6 x His, N-terminal, cleaved
binding result [2]: binds
